The source of these data is patent US20010010919A1 (published 2001).

The target of the assay is T1, orphanin FQ receptor (rat, UniProt P35370 1-367).
T1 chain: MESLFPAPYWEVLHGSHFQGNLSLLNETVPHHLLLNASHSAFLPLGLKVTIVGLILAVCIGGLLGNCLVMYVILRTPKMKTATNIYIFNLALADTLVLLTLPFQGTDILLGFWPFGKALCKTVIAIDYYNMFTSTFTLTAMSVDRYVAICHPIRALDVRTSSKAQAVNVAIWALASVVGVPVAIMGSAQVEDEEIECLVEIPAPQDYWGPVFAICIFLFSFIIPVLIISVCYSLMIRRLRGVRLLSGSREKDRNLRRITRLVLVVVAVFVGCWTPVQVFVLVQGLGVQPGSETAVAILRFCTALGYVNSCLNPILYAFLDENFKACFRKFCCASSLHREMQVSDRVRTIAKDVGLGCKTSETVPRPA
As to the kind of experiment: cell-based or functional assay.

B1: Y14-orphanin FQ (peptide)
peptide: FGGFTGARKSARKYANQ
As for B1, the “EC50, cAMP inhibition assay” value stood at 1 nM.
